Substrate in series [1]: OC[C@H]1O[C@H](O[C@@H]2[C@H](O)[C@@H](O)O[C@H](CO)[C@H]2O)[C@@H](O)[C@@H](O)[C@@H]1O
Kind of series: purified protein, by the assay type. The conditions noted are these: other: most active mannobiose substrate, pH 7.0, 37.0 °C.

Substrate in series [2]: O=[N+]([O-])c1ccc(O[C@H]2O[C@H](CO)[C@@H](O)[C@H](O)[C@@H]2O)cc1
Kind of series: 4NP-Man hydrolysis kinetics. The conditions noted are these: other: substrate 4NP-Man. It is filed as biochemical, Bacteroides thetaiotaomicron.

Substrate in series [3]: OC[C@H]1O[C@H](O[C@H]2[C@H](O)[C@H](O)[C@@H](O)O[C@@H]2CO)[C@@H](O)[C@@H](O)[C@@H]1O
Kind of series: mannobiose hydrolysis kinetics. It is filed as biochemical, Bacteroides thetaiotaomicron. The conditions noted are these: other: most active mannobiose substrate.

B1: Bt3858 (Bacteroides thetaiotaomicron VPI-5482) (protein)
chain: HTDQTPTKDFVDYVNPYIGNISHLLVPTYPTVHLPNSMLRVYPERGDYTSDRVNGLPVVVTSHRGSSAFNLSPVQGEVSRPIVSYSYDLENITPYSYSVYLDEADIQVEYAPSHQAGIYHISFGTEGDNALVVNTKNGKLVAEEKGVSGYQVIDNTPTKIYLYLETSQLPLRKGVLADGKVDMESKEGSAIALYYGSEKNLNLRYGISFISAEQAKKNLQRDITTYDVKAVADAGRRIWNKTLGKIVIEGGSEDEKEIFYTSLYRTYERMINLSEDGKYYSAFDGKIHEDGGVPFYTDDWIWDTYRATHPLRILIEPQKELDMIRSYIRMAEQSDRRWMPTFPEVTGDSHRMNGNHAVAVIWDAYCKGLKDFDLEAAYEACKGAITEKTLLPWLRCPLTELDKFYQEKGFFPALNPGEEETCKAVHSFERRQAVAVMLGNCYDNWCLAQIARTLNKTDDYKKFMRMSYTYRNVYNAETGFFHPKNKDGKFIEPFDYRYSGGQGARGYYGENNGWIYRWDVQHNPADLIALMGGQASFIERLNQTFNEPLGRSKFDFYHQLPDHTGNVGQFSMANEPCLHIPYLYNYAGQPWMTQKRIRVLLNQWFRNDLMGVPGDEDGGGMTAFVVFSMMGFYPVTPGSPTYNIGSPVFQSAKMEVGDGHYFEIIAENYAPDHKYIQSATLNGTPWNKPWFSHADIQNGGRLVLQMGDKPNKKWGIASDAVPPSSESLPE
Turning to B1, in series [1] (enzyme Bt3858), the Km turned out to be 1400 ± 170 µM, the kcat turned out to be 40 s⁻¹ and the kcat/Km came out at 28300 M⁻¹ s⁻¹. Further, in series [2] (enzyme Bt3858, pH 7.0), the Km is 270 ± 65 µM, the kcat turned out to be 0.000417 ± 1.67e-05 s⁻¹ and the kcat/Km came out at 1.57 M⁻¹ s⁻¹.

B2: Bt3965 (Bacteroides thetaiotaomicron VPI-5482) (protein)
chain: MAQTEKLTDYVNPFVGTDGYGNVYPGAQIPFGGIQISPDTDSRFYDAASGYKYNHLTLMGFSLTHLSGTGIPDLGDFLFIPGTGEMKLEPGTHEDPDQGYRSRYSHDKEWASPNYYAVELADYGVKAEMTSGVRSGMFRFTYPESDNAFIMIDMNHTLWQSCEWSNLRMINDSTITGYKLVKGWGPERHVYFTATFSKKLTGLRFVQDKKPVIYNTSRFRSSYEAWGKNLMACISFDTKAGEEVTVKTAISAVSTDGARNNMKELDGLTFNELRAKGEALWEKELGKYTLTADRKTKETFYTSAYHAALHPFIFQDSDGQFRGLDKNIEKAEGFTNYTVFSLWDTYRALHPWFNLVQQEVNADIANSMLAHYDKSVEKMLPIWSFYGNETWCMIGYHAVSVLADMIVKEVKGFDYERAYEAMKTTAMNSNYDCLPEYREMGYVPFDKEAESVSKTLEYAYDDYCIAQAAKKLGKEDDYHYFLNRALSYQTLIDPETKYMRGRDSKGDWRTPFTPVAYQGPGSVHGWGDITEGFTMQYTWYVPQDVQGYINEAGKELFRKRLDELFTVELPDDIPGAHDIQGRIGAYWHGNEPCHHVAYLYNYLKEPWKCQKWIRTIVDRFYGNTPDALSGNDDCGQMSAWYMFNCIGFYPVAPSSNIYNIGSPCAEAITVRMSNGKNIEMTADNWSPKNLYVKELYVNGKKYDKSYLTYDDIRDGVKLRFVMSGKPNYKRAVSDEAVPPSISLPEKTMKYKSSIGF
B2: the kcat in series [3] (enzyme Bt3965, pH 7.0) was 1.48 ± 0.113 s⁻¹; in series [2] (enzyme Bt3965, pH 7.0), 0.233 ± 0.00667 s⁻¹. The kcat/Km in series [3] (enzyme Bt3965, pH 7.0) came out at 183 M⁻¹ s⁻¹; in series [2] (enzyme Bt3965, pH 7.0), 233 M⁻¹ s⁻¹.

B3: Bt1769 (Bacteroides thetaiotaomicron VPI-5482) (protein)
chain: CNGSLQTADRTPVDYVNPYIGNISHLLVPTFPTIQLPNSMLRVYPERADYTSELLKGLPLIVTNHRERSAFNFSPYQGEKLRPVITYNYDNEHITPYSFDVELDDNRMKAEYALSHQSAIYRITYEADKPAYLIVNSRNGSIHANENFISGRQQLNDNTNVYVYIEAQEKPISAGILENGTIETSKDNAEGANACAAWRFADGTTTVNLRYGISFISEEQAEKNLHRELKDYNIKALAEAGRQIWNETLGRIQVEGGTEDDKTVFYSSFYRTFERPICMSEGGRYFSAFDGKVHEDNGTPFYTDDWIWDTYRAAHPLRTLIDQQKEEDIIASYLRMAEQMGNMWMPTFPEVTGDTRRMNSNHAVATVADALAKGLKVDTAKAYEACRKGIEEKTLAPWSGAPAGWLDNFYRENGYIPALRVDEPENDPNVHPFEKRQPVAVTLGTSYDQWCLSRIAQALNKKEEAEYYLKCSYNYRNLYNKETAFFHPKDKEGQWIEPFDYRFPGGMGAREYYGENNGWVYRWDVPHNVADLISLMGGNEQFIANLDRTFTEPLGRSKYAFYAKLPDHTGNVGQFSMANEPSLHVPYLYNYAGQPWKTQKRIRQMLKTWFRNDLMGIPGDEDGGGMTSFVVFSSLGFYPVTPGLPAYTIGSPLFTDAKIRLSNGAVFEIEAKNASTDNKYIQSATLNGKEWNKSWFSHDDLMSGGKLVLVMGNKPNKTWASGAEDVPPSLEIK
Take B3: in series [1] (enzyme Bt1769), the Michaelis constant (Km) was found to be 1300 ± 140 µM, the kcat worked out at 63.3 s⁻¹ and the catalytic efficiency (kcat/Km) stood at 48300 M⁻¹ s⁻¹.

B4: Bt4073 (Bacteroides thetaiotaomicron VPI-5482) (protein)
chain: GVVTEDLIPTDYVNPFIGASTSVGAAGVYHGLGKTFPGATTPYGMVQVSPNTITGGDNSSGYSDEHKTIEGFAFTQMSGVGWFGDLGNFLVMPTTGELQKIAGKEDGSIKGYRSSYDKATETAKAGYYSVELTDYKIKVESSATPHCGILQFTFPSNEQSRIQIDLARRVGGTSTSQYVKVLDDYTIQGWMKCTPDGGGWGNGEGNSDYTVYYYAQFSKPLSNYGFWSADIPDEWVRKRDEVVSIPYLTRISQAPVIKDKKELEGKHLGFFTEFPTKEGEQVEMKVGISFVDMEGAANNFKQEIASKNFAQVKQEASDLWNKELSRIRISGGTDDEKTVFYTSLYHTMIDPRIYTDVDGRYIGGDKKVHEQDGTFTKRTIFSGWDVFRSQFPLQAMINPRLVSDALNSLITMADQSRREYYERWELLNSYSGCMIGNPALSVLADAYMKGIRTYDVEKAYQYAVNTSAKFGNDSLGYTPEPLSISYTLEYAYADWCVAQLAKALGKEEDAKRFYEKGQAYRNMFDAEKGWFRPRNADGSWKAWPENALTEEWYGCIESNAYQQGWFVPHDVPGMVELMGGKEEVIANLTNLFDHTPSDMLWNDYYNHANEPVHFVPFLFNQLDVPWYTQKWTRYICKNAYANKVEGIVGNEDVGQMSAWYILAASGIHPSCPGNTRMEITSPVFDKVEFNLDSKYHQGKVFTIIAHNNNTNNLYIQKALLNGKEYNKCYLDFAEIAAGGTLELFMGDKPNTEWGVLSNI
In the case of B4, in series [3] (enzyme Bt4073, pH 7.0), the Michaelis constant (Km) was determined as 270 ± 49 µM, the catalytic constant (kcat) worked out at 183 ± 9.33 s⁻¹ and the catalytic efficiency (kcat/Km) was 683000 M⁻¹ s⁻¹. Also, in series [2] (enzyme Bt4073, pH 7.0), the Michaelis-Menten constant (Km) was found to be 1800 ± 210 µM, the kcat is 0.0045 ± 0.000233 s⁻¹ and the catalytic efficiency (kcat/Km) worked out at 2.33 M⁻¹ s⁻¹.

B5: Bt1878 (Bacteroides thetaiotaomicron VPI-5482) (protein)
chain: ETKDYTQYVNTFIGAADNGHTFPGACYPFGMIQTSPVTGAVGWRYCSEYTYQDSLIWGFTQTHLNGTGCMDLGDILVMPVTGTRARAWDAYRSHFPKDKEAATPGYYTVELSDPQVKAELTASIHAALHRYTYHKADSASLLIDLQHGPAWREEQYHSQVNSCEVNWEDAQTLAGHVNNTVWVDQDYFFVMKFNRPVIDSLYLPMGETEKGKRIIATFDLKPGDELMMKVALSTTSVEGAKKNLQAEIPDWNFDGVKLAAHDEWNSYLSRMDVEGTDDEKTNFYTCFYHALIQPNQISDVDGMYRNAADSIVKAGTGTFYSTFSLWDTYRAAHPFYTLMVPERVDDFVNSLIEQGEVQGFLPIWALWGKENFCMIGNHGVSVIAEAYRKGFRGFDAERAFNMVKKTQTVSHPLKSDWEVYTKYGYFPTDLTKAESVSSTLESVYDDYAAADMARRMGKEEDAAYFAKRADYYKNLFDSQTNFMRPRKADGTWKSPFNPSDVGHAESTGGDYTEGNAWQYTWHVQHDVPGLIALFGGEEPFLNKLDSLFTVKLETTQADVTGLIGQYAHGNEPSHHVTYLYALAGRPERTQELIREIFDTQYKNKPDGLCGNDDCGQMSAWYMFSAMGFYPVDPVSGDYVFGAPQLPKIVLHLADGKTFTVIAENLSKEHKYVDSITLNGEPYTKNTISHEDILKGGTLVYKMK
B5: in series [1] (enzyme Bt1878), the Km is 2000 ± 380 µM, the catalytic constant (kcat) came to 0.283 s⁻¹ and the specificity constant (kcat/Km) was determined as 140 M⁻¹ s⁻¹. In series [2] (enzyme Bt1878, pH 7.0), the Km worked out at 900 ± 130 µM, the turnover number (kcat) is 0.00133 ± 8.33e-05 s⁻¹ and the kcat/Km is 1.48 M⁻¹ s⁻¹.

B6: Bt3530 (Bacteroides thetaiotaomicron VPI-5482) (protein)
chain: MTPSVAQNTKYVNLFIGTSGDNGQVAPGAAAPFGMVCVCPDNDPRSHAGYDYAVTKVSGISVNRLSGVGCSGGGGNLRIRPVAPSQELHIKKSREKATPGYYSTAFTNGIKTELTATNAMAVERYKFPRSLSAALWIDFASTFEDVATCHYKRISETCIEGYVQAKNVCGHGCYKLYFSLNTSQPFQLEEQKETTACLTFGKKVRSVEVRIGLSALSSELASWECARWEKMDFEDVKSRTADQWEKQLSAIDVKGGKKDDRVIFYTSLYRTYLSPADVSSPDGAYLGTDGKVYISEDFRYYSNWSLWDTFRTKFPLLVLTEPAKMRDMATSLIHLYATGKKDWSTGFESTPTVRTEHAVILLLDAYRKGITNLDFRKGYAGMKQEMERLPMRSPDQKMESAYDLWAMAKIAEIIGEKADSEQYRQRSVSLFEETWKKEFMNVTPAFEVMKNNGLYQGTRWQYRWAAPQYIDKMIEWVGQDSLRLQLTYFFDHHLYNQGNEPDIHVPYLFNRLGAPEKTQQIVRSLMTEPMIHKYGGNSEFKTPYLGKAFKNAPEGYSPEMDEDDGTMSAWYVFGAMGFYPLLVGDEYYDLTSPLFDRVLLRLTNGNVLTIQTEGRKKKDAPIKSIHFNGKKIADYRISHNELIKGGELIYNYK
B6: in series [3] (enzyme Bt3530, pH 7.0), the turnover number (kcat) stood at 0.001 ± 8.33e-05 s⁻¹ and the catalytic efficiency (kcat/Km) turned out to be 1.58 M⁻¹ s⁻¹.
